Experimental data published in paper PMC10720262 (Cell Reports, 2023).
Substitutions are numbered along the chain they refer to.

B1: CL-512469 (antibody, V domains shown)
VH: QMQLVESGGGVVQPGRSLTLSCEASGFTFSNYGMHWVRQAPGKGLEWVAIIWFDGSHRFYADAVEGRFTISRDNSKNTLFLQMTSLRAEDAAVYYCARVGQFSSSSWGAFDIWGQGTVVTVSS
VL: EIVLTQSPGTLSLSPGESVTLSCRASQIISNTHLAWYQQKPGQAPSLLIYGASSRATGIPDRFSGSGSGTDFTLTISRLEPEDFAVYYCQQYGRLWTFGQGTKVEIK
B2: CL-512296 (antibody, V domains shown)
VH: QVQLVESGGGVVQPGRSLRLSCAASGFTFSNYGMHWVRQAPGKGLEWVAVIWYDGSKKFYADSVMGRFTISRDNSKNTLVLQMNSLGAEDTAVYYCARDRGYSGYVFDYWGQGTLVTVSS
VL: QSALTQPASVSGSPGQSIAISCTGTSSDVGGYNFVSWYRHHPGKAPKLMIYDVSNRPSGVSNRFSGSKSGNTASLTISGLQAEDEADYYCCSYAGSCSVFGGGTKLTVL
B3: CL-513041 (antibody, V domains shown)
VH: QEHLVESGGGVVQPGRSLRLSCAASGFTFSNSGMHWVRQAPGKGLEWVAVIWYDGSNKFYADSVRGRFTISRDNSNNTLYLQMNSLRAEDTALYYCARDRLFSGSWNWFDPWGQGTLVTVSS
VL: EIVLTQSPATLSLSPGERATLSCRASQSVSTYLAWYQQKPGQAPRLLIYDASNRATGIPARFSGSGSGTDFTLTISSLEPEDFAVYYCQQRSNWFTFGGGTKVEIK
B4: CL-512508 (antibody, V domains shown)
VH: QVQLVESGGGVVQPGTSLRLSCGASGFTFSSYGMHWVRQAPGKGLEWVAIIWYDGNNKYYADSVKGRFTISRDNSKNTLYLQMNSLRAEDTAVYYCAKVGQFSTSSWGAFDIWGQGTMVTVSS
VL: EIVLTQSPGTLPLSPGERATLSCRASQSVSSSQLAWYQQKPGQAPRLLIYGASSRATAIPDRFSGSGSGTDFTLTISRLEPEDFAVYYCQQYSRLWTFGQGTKVEIK
B5: CL-513094 (antibody, V domains shown)
VH: QVQLVESGGGVVQPGRSLRLSCAASGFTFSGSGMHWVRQAPGRGLEWVAIIWYDGSHKYYVDSVQGRFIISRDNSKNTLYLEMNNLRVEDTAVYYCVRAYPSGSSNDKYGMDVWGQGTTVTVSS
VL: not shown
B6: CL-512374 (antibody, V domains shown)
VH: QVQLVESGGGVVQPGRSLRLSCAASGFTFSSYGMHWVRQAPGKGLEWVAVIWYDGSNKYYADSVKGRFTISRDNSKNTLYLQMNSLRAEDTAVYYCARDGGGTTRSFDLWGRGTLVTVSS
VL: QSVLTQPPSVSGAPGQRVTISCTGSSSNIGAGYDVHWYQQLPGTAPKLLIYGNSNRPSGVPDRFSGSKSGTSASLAITGLQAEDEADYYCQSYDSSLSGSMFGGGTKLTVL
B7: CL-512264 (antibody, V domains shown)
VH: QVQLVESGGGVVQPGRSLRLSCVTSGFTFSNFGMHWVRQAPGKGLEWVAIIWYDGSNKFYADSLKGRFTISRDNSKNTLFLQMNSLRAEDTAVYYCARAHTVTTANDKYGTDVWGQGTTVTVSS
VL: DIQMTQSPSTLSASVGDRVTITCRASQSISSWLAWYQHKPGKAPKLLIYKASSLESGVPSRFSGSGSGTEFTLTISSLQPDDFATYFCQQYNSYWTFGQGTKVEIK
B8: CL-512870 (antibody, V domains shown)
VH: QVQLVESGGGVVQPGRSLRLSCEASGFTFSHYGMHWVRQAPGRGLEWVAIIWYDGSNTYYRDSVKGRFTISRDNSKDTLFLQMNSLRPDDTAVYYCARALYYDSGSLFDFWGQGTLVTVSS
VL: B7 VL with H38Q, S56T, S67F, T74S, F87Y, Q89L, S93I
B9: CL-512761 (antibody, V domains shown)
VH: QVQLVESGGGVVQPGTSLRLSCAASGFTFSNYGMHWVRQAPGKGLEWVSITWYDESNKFYADSVKGRFTISRDNSKNTLYLQMNSLRAEDTAVYYCARAYDTLTGYRAQKYGMDVWGQGTTVTVSS
VL: B7 VL with S28R, S31T, H38Q, Y49N, K50E, S53R, F87Y
B10: CL-512275 (antibody, V domains shown)
VH: B7 VH with R16G, L18F, V23E, I50L, N57H, K65T, F80Y, A88V, T101S, S124P
VL: B7 VL with K42R, V58I
B11: CL-512564 (antibody, V domains shown)
VH: QVQLVESGGGVVQPGRSLRLSCAASGFTFSNSGMHWVRQAPGKGLEWVAIIWYDGSHKFYADSVKGRFTISRDNSKNTLYLQMNSLRIEDTAMYYCVRSYNWNYPVRGDYKYGMDVWGQGTTVTVSS
VL: B7 VL with Y36F, H38Q, K45N, K50M, E55Q, F87Y, Y91F, S93T
B12: CL-512319 (antibody, V domains shown)
VH: B7 VH with V23A, T24A, I50V, N57H, F80Y, S85N, T101P, A105D, N106Y, T111M
VL: B7 VL with A13S, S31I, Y36I, H38Q, F87Y, Y91F, N92Y, Q99L
B13: CL-513274 (antibody, V domains shown)
VH: QVQLVESGGGVVQPGRSLRVSCAASGFTFSNYGMYWVRQAPGKGLEWVALIWHDGSNKFYEDSVKGRFTISRDNSKNTLYLQMNSLRAEDTAVYYCARAGYFQGSGSFLDYWGQGTLVTVSS
VL: B7 VL with S31T, H38Q, N92S
B14: CL-513069 (antibody, V domains shown)
VH: QVQLVESGGGVVQPGKSLRLSCEASGFTFSNYGMHWVRQAPGKGLDWVAIIWHDGGNKFYADSVRGRFTISRDNSKNTLFLQMNSLRAEDSAVYYCARVFDFRDSCYTMDVWGQGTTVTVSS
VL: B7 VL with H38Q, T72S, F87Y, N92T, S93R, K102R, K106Q
B15: CL-512871 (antibody, V domains shown)
VH: QVLLVESGGGVVQPGRSLRLSCAASGFTFSNYGMHWVRQAPGKGLEWVALIRYDGINKFYADSVKGRFTISRDNSENTLYMQINSLRAEDTAMYYCAKAYNTSSDYYYGMDVWGQGTTVTVSS
VL: B7 VL with S31T, H38Q, S53R, F83L, F87Y, Y91F, K106R
B16: CL-513083 (antibody, V domains shown)
VH: QVQLVESGGGVVQPGRSLRLSCAASGFTFSNYGMHWVRQAPGRGLEWVAIIWYDGSNKYYEDSVKGRFTISRDNSKNTLYLQMNSLRAEDTAVYYCARAQWLDQRHYHYTMDVWGQGTTVTVSS
VL: not shown
B17: CL-512459 (antibody, V domains shown)
VH: QVQLVESGGGVVQPGRSLRLSCTASGFTFSDYGMHWVRQAPGKGLEWVSIIWYDGSKKYYADSVQGRFTISRDNSKNTLYLQMSSLRAEDTAVYYCARAYGSGSYYTFNYWGQGTLVTVSS
VL: EIVMTQSPATLSVSPGERATLSCRASQSVNSNLAWYQQKPGQAPRLLIYGASTRATGFPARFIGSGSGTDFTLTINSLQSEDFAVYYCQQYNHWWTFGQGTKVEIK

molecular target: recombinant full-length PfCSP (Plasmodium falciparum circumsporozoite protein, strain NF54) (Plasmodium falciparum NF54, UniProt P19597)
Sequence (P19597 20-375): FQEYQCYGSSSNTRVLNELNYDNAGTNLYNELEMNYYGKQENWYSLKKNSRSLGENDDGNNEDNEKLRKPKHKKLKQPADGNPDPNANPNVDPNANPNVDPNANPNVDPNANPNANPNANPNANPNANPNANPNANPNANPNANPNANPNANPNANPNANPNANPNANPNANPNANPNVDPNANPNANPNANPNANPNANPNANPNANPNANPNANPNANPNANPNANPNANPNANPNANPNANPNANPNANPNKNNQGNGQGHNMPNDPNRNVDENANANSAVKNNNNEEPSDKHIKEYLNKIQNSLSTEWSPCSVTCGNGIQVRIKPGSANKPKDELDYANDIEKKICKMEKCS

Binding result, binds:
B1, B2, B3, B4, B5, B6, B7, B8, B9, B10, B11, B12, B13, B14, B15, B16, B17
